Assay [1] deals with T1, V5-His-tagged murine soluble LIFR, secreted by HEK 293 cells (mouse, UniProt P42703-2 44-719, limits assumed).
T1 construct: Used as culture supernatant; also called msLIFR; murine soluble LIFRα; not shown: V5-His tag
T1 sequence (looked up): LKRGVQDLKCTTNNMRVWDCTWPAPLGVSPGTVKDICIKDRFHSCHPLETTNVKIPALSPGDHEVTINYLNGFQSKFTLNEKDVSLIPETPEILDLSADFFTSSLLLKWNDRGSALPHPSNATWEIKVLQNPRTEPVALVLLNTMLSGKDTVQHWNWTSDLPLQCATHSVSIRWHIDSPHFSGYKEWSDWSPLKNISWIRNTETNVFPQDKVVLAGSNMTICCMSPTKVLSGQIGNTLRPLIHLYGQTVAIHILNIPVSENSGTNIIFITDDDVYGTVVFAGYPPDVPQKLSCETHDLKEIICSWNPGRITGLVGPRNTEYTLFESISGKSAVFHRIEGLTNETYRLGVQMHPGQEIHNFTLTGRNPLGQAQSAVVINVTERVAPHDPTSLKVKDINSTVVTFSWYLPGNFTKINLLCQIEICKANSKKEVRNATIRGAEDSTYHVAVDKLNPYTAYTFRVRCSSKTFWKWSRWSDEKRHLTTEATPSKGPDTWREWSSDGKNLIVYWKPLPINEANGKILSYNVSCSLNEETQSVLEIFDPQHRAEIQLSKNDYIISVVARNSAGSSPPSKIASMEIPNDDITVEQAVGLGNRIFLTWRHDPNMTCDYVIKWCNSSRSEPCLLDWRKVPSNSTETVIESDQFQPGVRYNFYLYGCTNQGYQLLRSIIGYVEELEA
The experiment in a line: GST pull-down, HEK supernatant with msLIFR as prey, anti-V5 Western blot.

Assay [2] has as its target T2, human LIFRα from HEK 293 cell extracts (human, UniProt P42702 45-1097).
T2 construct: Endogenous protein from crude cell extract; also called hLIFRα
T2 sequence (looked up): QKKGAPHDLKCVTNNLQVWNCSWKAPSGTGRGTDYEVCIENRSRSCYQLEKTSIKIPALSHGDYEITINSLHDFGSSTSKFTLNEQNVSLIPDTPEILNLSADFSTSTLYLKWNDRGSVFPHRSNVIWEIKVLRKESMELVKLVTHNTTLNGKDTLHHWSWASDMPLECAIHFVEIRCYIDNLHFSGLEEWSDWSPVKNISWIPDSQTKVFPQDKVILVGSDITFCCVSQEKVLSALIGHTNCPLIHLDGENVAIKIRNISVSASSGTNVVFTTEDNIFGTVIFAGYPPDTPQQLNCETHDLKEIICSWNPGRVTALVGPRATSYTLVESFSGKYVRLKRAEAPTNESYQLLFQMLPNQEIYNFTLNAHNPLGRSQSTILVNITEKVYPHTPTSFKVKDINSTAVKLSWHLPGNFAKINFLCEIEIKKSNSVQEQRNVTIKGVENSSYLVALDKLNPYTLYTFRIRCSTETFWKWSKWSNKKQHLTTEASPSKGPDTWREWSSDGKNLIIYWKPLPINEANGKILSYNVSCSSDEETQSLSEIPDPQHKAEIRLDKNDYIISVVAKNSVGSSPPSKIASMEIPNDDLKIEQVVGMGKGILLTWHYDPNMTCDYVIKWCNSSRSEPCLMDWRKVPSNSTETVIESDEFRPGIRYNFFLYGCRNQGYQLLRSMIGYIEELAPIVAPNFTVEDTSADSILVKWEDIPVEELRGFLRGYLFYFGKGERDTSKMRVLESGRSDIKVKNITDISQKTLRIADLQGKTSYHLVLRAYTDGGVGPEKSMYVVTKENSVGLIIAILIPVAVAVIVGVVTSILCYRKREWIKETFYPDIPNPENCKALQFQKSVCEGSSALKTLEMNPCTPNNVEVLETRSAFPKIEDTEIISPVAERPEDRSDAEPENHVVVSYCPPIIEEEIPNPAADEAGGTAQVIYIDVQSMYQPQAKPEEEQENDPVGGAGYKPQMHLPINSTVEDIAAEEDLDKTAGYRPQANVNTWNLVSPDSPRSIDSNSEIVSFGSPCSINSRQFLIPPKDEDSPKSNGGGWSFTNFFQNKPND
The experiment in a line: GST pull-down, HEK cell extracts as prey, anti-LIFR Western blot. On the technique in general: A western blot detects proteins with antibodies after separation by electrophoresis.

Assay [3] addresses iodinated murine LIF (125I-mLIF) (mouse, UniProt P09056 24-203). Nature of the assay: radioligand binding on transfected Ba/F3 cells.
Another assay has as its target murine LIF, unlabelled (mouse, UniProt P09056 24-203). The experiment in a line: displacement of 125I-mLIF from Ba/F3 cells transfected with LIFRα and gp130.

B1: GST fusion protein of mature murine EPO, expressed in E. coli (ligand, mouse, UniProt P07321 27-192, looked up)
chain: APPRLICDSRVLERYILEAKEAENVTMGCAEGPRLSENITVPDTKVNFYAWKRMEVEEQAIEVWQGLSLLSEAILQAQALLANSSQPPETLQLHIDKAISGLRSLTSLLRVLGAQKELMSPPDTTPPAPLRTLTVDTFCKLFRVYANFLRGKLKLYTGEVCRRGDR
notes: mature; also called GST-matmEPO; matmE; not shown: N-terminal GST tag from pGEX-6P-1
Take B1: the binding result in assay [1] and in assay [2] was “no binding” throughout.

B2: heterodimeric LIF receptor (murine gp130 and LIFRα) on transiently transfected Ba/F3 cells (receptor)
chain 1: QLLEPCGYIYPEFPVVQRGSNFTAICVLKEACLQHYYVNASYIVWKTNHAAVPREQVTVINRTTSSVTFTDVVLPSVQLTCNILSFGQIEQNVYGVTMLSGFPPDKPTNLTCIVNEGKNMLCQWDPGRETYLETNYTLKSEWATEKFPDCQSKHGTSCMVSYMPTYYVNIEVWVEAENALGKVSSESINFDPVDKVKPTPPYNLSVTNSEELSSILKLSWVSSGLGGLLDLKSDIQYRTKDASTWIQVPLEDTMSPRTSFTVQDLKPFTEYVFRIRSIKDSGKGYWSDWSEEASGTTYEDRPSRPPSFWYKTNPSHGQEYRSVRLIWKALPLSEANGKILDYEVILTQSKSVSQTYTVTGTELTVNLTNDRYVASLAARNKVGKSAAAVLTIPSPHVTAAYSVVNLKAFPKDNLLWVEWTPPPKPVSKYILEWCVLSENAPCVEDWQQEDATVNRTHLRGRLLESKCYQITVTPVFATGPGGSESLKAYLKQAAPARGPTVRTKKVGKNEAVLAWDQIPVDDQNGFIRNYSISYRTSVGKEMVVHVDSSHTEYTLSSLSSDTLYMVRMAAYTDEGGKDGPEFTFTTPKFAQGEIEAIVVPVCLAFLLTTLLGVLFCFNKRDLIKKHIWPNVPDPSKSHIAQWSPHTPPRHNFNSKDQMYSDGNFTDVSVVEIEANNKKPCPDDLKSVDLFKKEKVSTEGHSSGIGGSSCMSSSRPSISSNEENESAQSTASTVQYSTVVHSGYRHQVPSVQVFSRSESTQPLLDSEERPEDLQLVDSVDGGDEILPRQPYFKQNCSQPEACPEISHFERSNQVLSGNEEDFVRLKQQQVSDHISQPYGSEQRRLFQEGSTADALGTGADGQMERFESVGMETTIDEEIPKSYLPQTVRQGGYMPQ
chain 2: LKRGVQDLKCTTNNMRVWDCTWPAPLGVSPGTVKDICIKDRFHSCHPLETTNVKIPALSPGDHEVTINYLNGFQSKFTLNEKDVSLIPETPEILDLSADFFTSSLLLKWNDRGSALPHPSNATWEIKVLQNPRTEPVALVLLNTMLSGKDTVQHWNWTSDLPLQCATHSVSIRWHIDSPHFSGYKEWSDWSPLKNISWIRNTETNVFPQDKVVLAGSNMTICCMSPTKVLSGQIGNTLRPLIHLYGQTVAIHILNIPVSENSGTNIIFITDDDVYGTVVFAGYPPDVPQKLSCETHDLKEIICSWNPGRITGLVGPRNTEYTLFESISGKSAVFHRIEGLTNETYRLGVQMHPGQEIHNFTLTGRNPLGQAQSAVVINVTERVAPHDPTSLKVKDINSTVVTFSWYLPGNFTKINLLCQIEICKANSKKEVRNATIRGAEDSTYHVAVDKLNPYTAYTFRVRCSSKTFWKWSRWSDEKRHLTTEATPSKGPDTWREWSSDGKNLIVYWKPLPINEANGKILSYNVSCSLNEETQSVLEIFDPQHRAEIQLSKNDYIISVVARNSAGSSPPSKIASMEIPNDDITVEQAVGLGNRIFLTWRHDPNMTCDYVIKWCNSSRSEPCLLDWRKVPSNSTETVIESDQFQPGVRYNFYLYGCTNQGYQLLRSIIGYVEELAPIVAPNFTVEDTSADSILVKWDDIPVEELRGFLRGYLFYFQKGERDTPKTRSLEPHHSDIKLKNITDISQKTLRIADLQGKTSYHLVLRAYTHGGLGPEKSMFVVTKENSVGLIIAILIPVAVAVIVGVVTSILCYRKREWIKETFYPDIPNPENCKALQFQKSVCEGSNALKTLEMNPCTPNNVEVLESRSIVPKIEDTEIISPVAERPGERSEVDPENHVVVSYCPPIIEEEITNPAADEVGGASQVVYIDVQSMYQPQAKAEEEQDVDPVVVAGYKPQMRLPISPAVEDTAAEDEEGKTAGYRPQANVNTWNLVSPDSPRSTDSNNEVVSFGSPCSINSRQFLIPPKDEDSPKSNGGGWSFTNFFQNKPND
notes: whole, on cells; Also used here for the endogenous LIFR of murine M1 cells in the proliferation assay; also called classical LIFR; LIFRα/gp130
For the molecule B2, the binding result is “binds” in assay [3] and “binds” with murine LIF, unlabelled.

The values above are taken from patent EP2226633A1 (Charité - Universitätsmedizin Berlin, dated 2010).
